In US20130058943A1:

Assays:
[1] = molecular target: recombinant human TNF (human) (UniProt P01375); assay: sandwich ELISA, rhTNF 250 pg/ml captured by plate-bound antibody
[2] = molecular target: recombinant human IL-6 (human) (UniProt P05231); assay: sandwich ELISA, rhIL-6 300 pg/ml captured by plate-bound antibody
[3] = molecular target: recombinant human TNF (human) (UniProt P01375); assay: anti-TNF ELISA, AU/mg of final lot over defatted colostrum
[4] = molecular target: recombinant murine TNF (murine) (UniProt P06804); assay: cell-based or functional assay
Sequence of UniProt P06804 (P06804 whole entry, form in doubt): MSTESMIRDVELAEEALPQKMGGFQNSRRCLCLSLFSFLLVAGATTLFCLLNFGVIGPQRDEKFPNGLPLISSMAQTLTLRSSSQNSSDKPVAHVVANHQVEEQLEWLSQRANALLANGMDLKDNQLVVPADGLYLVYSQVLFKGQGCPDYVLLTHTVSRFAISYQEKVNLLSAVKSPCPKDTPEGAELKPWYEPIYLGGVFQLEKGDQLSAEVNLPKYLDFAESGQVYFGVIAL

[5] = molecular target: transmembrane TNF on stimulated human PBMC (human) (UniProt P01375); assay: cell-based or functional assay
[6] = molecular target: recombinant rhesus macaque TNF (rhesus macaque) (UniProt P48094); assay: cell-based or functional assay
Sequence of UniProt P48094 (P48094 whole entry, form in doubt): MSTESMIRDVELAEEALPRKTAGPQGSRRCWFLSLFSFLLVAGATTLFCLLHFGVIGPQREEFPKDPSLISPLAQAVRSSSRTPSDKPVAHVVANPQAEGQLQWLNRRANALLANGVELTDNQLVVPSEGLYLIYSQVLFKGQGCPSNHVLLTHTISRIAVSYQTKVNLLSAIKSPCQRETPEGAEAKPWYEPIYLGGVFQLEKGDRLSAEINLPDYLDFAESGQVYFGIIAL

[7] = molecular target: recombinant canine TNF (canine) (UniProt P51742); assay: cell-based or functional assay
Sequence of UniProt P51742 (P51742 whole entry, form in doubt): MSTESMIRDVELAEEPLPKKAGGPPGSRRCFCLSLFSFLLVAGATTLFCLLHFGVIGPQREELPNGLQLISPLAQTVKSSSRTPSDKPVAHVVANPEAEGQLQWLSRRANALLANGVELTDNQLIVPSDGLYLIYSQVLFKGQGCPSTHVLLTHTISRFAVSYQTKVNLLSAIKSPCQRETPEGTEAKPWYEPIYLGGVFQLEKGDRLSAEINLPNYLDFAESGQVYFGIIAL

[8] = molecular target: recombinant cynomolgus monkey TNF (cynomolgus monkey) (UniProt P79337); assay: cell-based or functional assay
Sequence of UniProt P79337 (P79337 whole entry, form in doubt): as the sequence (P48094 whole entry, form in doubt) above, with R8Q, T45A, L113V counted along it

[9] = molecular target: recombinant bovine TNF (bovine) (UniProt Q06599); assay: cell-based or functional assay
Sequence of UniProt Q06599 (Q06599 whole entry, form in doubt): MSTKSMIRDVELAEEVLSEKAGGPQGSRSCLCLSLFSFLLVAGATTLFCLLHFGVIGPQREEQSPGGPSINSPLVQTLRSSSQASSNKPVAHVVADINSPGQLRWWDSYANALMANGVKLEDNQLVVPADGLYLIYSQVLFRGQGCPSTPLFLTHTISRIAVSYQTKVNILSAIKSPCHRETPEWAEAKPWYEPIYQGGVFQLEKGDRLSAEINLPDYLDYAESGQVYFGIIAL

[10] = molecular target: recombinant rat TNF (rat) (UniProt P16599); assay: cell-based or functional assay
Sequence of UniProt P16599 (P16599 whole entry, form in doubt): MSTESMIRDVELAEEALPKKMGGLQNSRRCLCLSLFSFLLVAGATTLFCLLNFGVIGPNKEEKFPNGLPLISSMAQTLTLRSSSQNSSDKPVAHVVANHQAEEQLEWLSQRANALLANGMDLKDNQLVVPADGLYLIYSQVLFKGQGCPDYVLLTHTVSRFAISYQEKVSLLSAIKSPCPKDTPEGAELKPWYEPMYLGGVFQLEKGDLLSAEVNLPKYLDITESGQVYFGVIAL

[11] = molecular target: recombinant human TNF (human) (UniProt P01375); assay: cell-based or functional assay
[12] = molecular target: recombinant human TNF (human) (UniProt P01375); assay: anti-TNF ELISA, protein by BCA; first of two lots
[13] = molecular target: recombinant human TNF (human) (UniProt P01375); assay: table head: EC50 in TNF ELISA; the text that introduces the table speaks of the L929 neutralization assay
[14] = molecular target: recombinant human TNF (human) (UniProt P01375); assay: anti-TNF ELISA, protein by BCA; second of two lots

Sequence of UniProt P05231 (P05231 30-212 limits assumed): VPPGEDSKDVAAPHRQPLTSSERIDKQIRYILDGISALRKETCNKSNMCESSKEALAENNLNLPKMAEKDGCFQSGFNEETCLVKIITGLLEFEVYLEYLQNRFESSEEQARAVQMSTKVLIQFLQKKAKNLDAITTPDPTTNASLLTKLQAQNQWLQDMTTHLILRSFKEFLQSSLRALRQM

Substance	Absorbance 450 nm (absorbance at 450 nm) [1]	Absorbance 450 nm (absorbance at 450 nm) [2]	fold increase of potency against defatted colostrum [3] [fold]	EC50, L929 neutralization assay [4] [mg/mL]	Late apoptotic cells, annexin V / propidium iodide FACS of stimulated human PBMC (untreated 27.16%) [5] [%]	Total apoptotic cells, annexin V / propidium iodide FACS of stimulated human PBMC (untreated 34.65%) [5] [%]	EC50, L929 neutralization assay [6] [mg/mL]	EC50, L929 neutralization assay [7] [mg/mL]	EC50, L929 neutralization assay [8] [mg/mL]	EC50, L929 neutralization assay [9] [mg/mL]	EC50, L929 neutralization assay [10] [mg/mL]	EC50, L929 neutralization assay [11] [mg/mL]	anti-TNF activity by ELISA per mg protein (AU/mg protein) [12]	EC50 [13] [µg/mL]	anti-TNF activity by ELISA per mg protein (AU/mg protein) [14]
Control Bovine Ig (antibody)	-0.01	0.01													
AVX-470, bovine colostrum-derived polyclonal anti-hTNF antibody	0.76	0.03	1.9	> 2	43.3	52.1	0.032	0.25	0.048	> 2	> 2	0.028	634	15.9	526
